Data published in US20160075789A1 (EDIMER PHARMACEUTICALS, published 2016).

Molecular target: T1, Fc-APRIL (UniProt O75888 105-250, limits assumed)
T1 construct: also called control protein Fc-APRIL; not shown: Fc portion; not described for this construct
T1 sequence (looked up): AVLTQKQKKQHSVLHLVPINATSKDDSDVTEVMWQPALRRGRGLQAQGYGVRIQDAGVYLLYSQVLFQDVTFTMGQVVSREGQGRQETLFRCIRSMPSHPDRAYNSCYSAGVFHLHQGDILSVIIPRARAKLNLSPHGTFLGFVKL
Assay: western blot under reducing conditions

B1: mAbEDA1-EctoD3 (antibody, mouse IgG1, V domains shown)
VH: QVQLHQSGAELARPGASVKLSCKASGYTFTSYGISWVKQRTGQGLEWIGEVYPRSGDTYYHDYFEGKATLTADKSSSTAYMELRSLTSEDSAVYFCARGDYADVWGTGTTVTVSS
VL: DIVLTQSPASLAVSLGQRATISCRASKSVSTFGNSYMLWYQQKPGQPPKLLIYLASNLESGVPARFSGSGSGTDFTLNIHPVEEEDAATYYCQNSRELPYTFGGGTKLEIKR
notes: also called EctoD3-biotin; EctoD3-biot
B1: no binding.
